From paper doi:10.1101/258194 (bioRxiv, 2018) come the findings set out here.

In experiment [1] the target is T1, Zip2^499-704 (XPF-like region), recombinant, co-expressed with His6-Spo16 (S. cerevisiae, UniProt P53061 499-704).
T1 sequence: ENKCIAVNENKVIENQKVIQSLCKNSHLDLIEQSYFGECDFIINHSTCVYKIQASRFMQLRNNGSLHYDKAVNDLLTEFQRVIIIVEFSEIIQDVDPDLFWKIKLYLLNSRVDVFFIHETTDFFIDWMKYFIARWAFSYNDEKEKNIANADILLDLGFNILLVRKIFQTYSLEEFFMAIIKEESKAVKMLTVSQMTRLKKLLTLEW
The experiment is described as follows: SEC-MALS. A general note: In gel filtration, larger molecules generally elute earlier.

The target of experiment [2] is T2, Zip2^499-704, surface-lysine methylated (Form 1 crystals) (S. cerevisiae, UniProt P53061 499-704).
T2 sequence: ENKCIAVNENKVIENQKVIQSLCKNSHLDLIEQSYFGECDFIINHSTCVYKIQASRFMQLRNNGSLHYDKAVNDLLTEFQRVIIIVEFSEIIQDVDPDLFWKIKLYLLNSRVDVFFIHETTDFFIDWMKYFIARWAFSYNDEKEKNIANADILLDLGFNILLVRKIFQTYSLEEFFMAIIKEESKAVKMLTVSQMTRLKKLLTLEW
Description: crystal structure.

B1: His6-Spo16 (full-length Spo16 with TEV-cleavable N-terminal His6-tag), recombinant (natural protein)
chain: SEFFWDVQKIQEISNVEEHSVVKCVTVNTSRLISQLNEELQDEESGVNFIVTQLQLLINNVYEKIQKSPGVPAHRSLMINLNFTRLKFSIAYWDILLERSLDLINGPSKTGARYFITEVTPVDRSRYVENNQYFLAFKANQRLTRNSVDMDEFIDFEILIKQIIFDLFKKNGIPDQDFEAILSRFHNLESLVVAFNE
By stoichiometry N is commonly meant the number of molecules, sites or subunits per partner or assembly. For the molecule B1, in experiment [1], the “stoichiometry N” value was found to be 1.

B2: His6-Spo16, surface-lysine methylated (Form 1 crystals) (natural protein)
chain: SEFFWDVQKIQEISNVEEHSVVKCVTVNTSRLISQLNEELQDEESGVNFIVTQLQLLINNVYEKIQKSPGVPAHRSLMINLNFTRLKFSIAYWDILLERSLDLINGPSKTGARYFITEVTPVDRSRYVENNQYFLAFKANQRLTRNSVDMDEFIDFEILIKQIIFDLFKKNGIPDQDFEAILSRFHNLESLVVAFNE
modifications: surface lysines dimethylated (positions not listed)
B2: the binding result in experiment [2] was “binds”.
